The text below walks through data of paper PMC4137108.

The target of experiment [1] is Apaf-1 (human (endogenous in HeLa)) (UniProt O14727).
Experiment [2] has the same target. This is another data set of the same source.

Sequence of UniProt O14727 (O14727 whole entry): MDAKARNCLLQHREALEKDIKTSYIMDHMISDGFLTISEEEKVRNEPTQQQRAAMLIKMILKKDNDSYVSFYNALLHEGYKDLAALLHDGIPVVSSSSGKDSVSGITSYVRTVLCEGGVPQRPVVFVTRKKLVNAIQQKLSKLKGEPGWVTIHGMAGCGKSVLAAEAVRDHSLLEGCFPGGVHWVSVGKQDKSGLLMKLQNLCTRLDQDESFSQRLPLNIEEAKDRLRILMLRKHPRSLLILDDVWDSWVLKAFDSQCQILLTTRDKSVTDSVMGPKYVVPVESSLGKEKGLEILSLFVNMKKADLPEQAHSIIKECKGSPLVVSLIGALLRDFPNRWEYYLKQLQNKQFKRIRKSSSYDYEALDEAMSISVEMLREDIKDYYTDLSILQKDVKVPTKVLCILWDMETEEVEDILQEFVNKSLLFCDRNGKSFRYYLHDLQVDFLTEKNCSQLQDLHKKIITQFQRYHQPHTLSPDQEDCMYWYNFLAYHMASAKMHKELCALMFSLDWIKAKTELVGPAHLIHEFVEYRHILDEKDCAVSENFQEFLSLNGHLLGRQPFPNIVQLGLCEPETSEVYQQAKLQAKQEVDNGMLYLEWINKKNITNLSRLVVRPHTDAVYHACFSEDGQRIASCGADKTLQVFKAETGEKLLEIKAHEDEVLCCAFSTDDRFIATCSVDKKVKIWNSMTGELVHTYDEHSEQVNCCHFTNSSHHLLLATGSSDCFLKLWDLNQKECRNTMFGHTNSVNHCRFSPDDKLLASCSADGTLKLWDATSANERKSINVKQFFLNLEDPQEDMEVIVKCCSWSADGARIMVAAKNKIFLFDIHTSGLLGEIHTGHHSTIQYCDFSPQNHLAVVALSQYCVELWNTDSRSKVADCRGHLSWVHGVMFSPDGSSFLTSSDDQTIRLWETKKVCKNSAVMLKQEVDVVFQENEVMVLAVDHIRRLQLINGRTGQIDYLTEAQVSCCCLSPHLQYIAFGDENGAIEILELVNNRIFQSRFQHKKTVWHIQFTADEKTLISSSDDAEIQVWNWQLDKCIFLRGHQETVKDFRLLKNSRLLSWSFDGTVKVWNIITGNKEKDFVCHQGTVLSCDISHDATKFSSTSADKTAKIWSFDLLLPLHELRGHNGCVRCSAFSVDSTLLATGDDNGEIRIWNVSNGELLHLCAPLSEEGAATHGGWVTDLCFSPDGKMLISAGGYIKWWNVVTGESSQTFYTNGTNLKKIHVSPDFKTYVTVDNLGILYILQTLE

As for “Cytochrome c from equine heart (from UniProt P00004 1-105) (natural protein)”, in experiment [1], the relative caspase 3 activation in a cell-free system after precipitation of Cyt c with acetone (water-organic solvent interface) came to 51% and the relative caspase 3 activation in a cell-free system after precipitation of Cyt c with acetonitrile (water-organic solvent interface) came out at 64%. In experiment [2], the cell-free caspase 3 activation in HeLa cytosol (DEVD-pNA), relative to non-modified Cyt c (the reference itself) turned out to be 100% and the cell-free caspase 9 activation in HeLa cytosol (LEHD-pNA), relative to non-modified Cyt c (the reference itself) is 100%.
